Biological target: B7 (cell surface glycoprotein, CD28-ligand B7) (Homo sapiens (Human)) (UniProt P33681)

Question: With “CTLA-4Ig (chimeric recombinant soluble B7-ligand) (from UniProt P16410) (Fc fusion)” as the substance, how does the IFN-γ production in PBMC stimulated with IL-12 alone (RIA) read?
Answer: > 5 fold

Reference: US5723127
